Target: Env-K, stabilized HIV Env trimer of BG505 NFL2P gp140 with a C-terminal Peptide K (HIV-1 (BG505))
Assay: SEC; Sephacryl S-300 after lectin affinity; peaks of aggregates, trimers and monomers; pooled trimer fractions also run on BN-PAGE

Env-K, stabilized HIV Env trimer of BG505 NFL2P gp140 with a C-terminal Peptide K
stoichiometry N: 3

Reference: article PMC10882061
